In the supplement of paper PMC10724198:
± gives the standard deviation of the averaged measurements.

Legend:
Saccharomyces cerevisiae [1] = assay: protein stability index of tFT-peptide fusion (C-terminal peptide) (PSI (0-1 scale)); higher = more stable (slower turnover)
Description: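 MPS profiling in S. cerevisiae of the tFT-X12 degron library: putative degron peptides plus stable controls, 12 aa, fused to the C-terminus of a sfGFP-mCherry timer. Cells are FACS-sorted into 8 mCherry/sfGFP bins and deep-sequenced. PSI runs from 0 (unstable) to 1 (stable). Backgrounds are wild type, das1Δ and doa10Δ at 30 °C, and wild type, das1Δ, cdc34-1 and cdc53-1 at 37 °C; 2-3 technical replicates each.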

Saccharomyces cerevisiae [2] = assay: as above; settings: genetic background: wild type; temperature: 30 C
[3] = genetic background: cdc34-1, temperature: 37 C
[4] = genetic background: cdc53-1, temperature: 37 C
[5] = genetic background: das1 deletion, temperature: 30 C
[6] = genetic background: das1 deletion, temperature: 37 C
[7] = genetic background: doa10 deletion, temperature: 30 C
[8] = genetic background: wild type, temperature: 30 C
[9] = genetic background: wild type, temperature: 37 C
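Note: PSI is a weighted mean of sequencing reads over stability bins, variants kept only with over 10 reads, mCherry proximal and sfGFP distal, peptide attached via GGGS linker.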

| Sequence | protein stability index (Saccharomyces cerevisiae [1]; [3]) | protein stability index (Saccharomyces cerevisiae [1]; [4]) | protein stability index (Saccharomyces cerevisiae [1]; [5]) | protein stability index (Saccharomyces cerevisiae [1]; [6]) | protein stability index (Saccharomyces cerevisiae [1]; [7]) | protein stability index (Saccharomyces cerevisiae [1]; [8]) | protein stability index (Saccharomyces cerevisiae [1]; [9]) | protein stability index (Saccharomyces cerevisiae [2]) |
| --- | --- | --- | --- | --- | --- | --- | --- | --- |
| PVCRQVGVRLVA | 0.582 ± 0.022 | 0.625 ± 0.052 | 0.525 ± 0.025 | 0.6482 ± 0.0047 | 0.265 ± 0.0046 | 0.311 ± 0.034 | 0.466 ± 0.039 | 0.456 ± 0.045 |
| PVSEPCAWRIIA | 0.374 ± 0.015 | 0.689 ± 0.026 | 0.6769 ± 0.0044 | 0.699 ± 0.018 | 0.0726 ± 0.0028 | 0.0645 ± 0.018 | 0.0736 ± 0.0023 | 0.1098 ± 0.00053 |
| PWFCYVQLVVPV | 0.226 ± 0.02 | 0.266 ± 0.0075 | 0.232 ± 0.035 | 0.349 ± 0.0058 | 0.188 ± 0.0072 | 0.221 ± 0.03 | 0.313 ± 0.0036 | 0.309 ± 0.0036 |
| PYPPTSLPPTWQ | 0.672 ± 0.043 | 0.7459 ± 0.0012 | 0.652 ± 0.0095 | 0.711 ± 0.017 | 0.678 ± 0.023 | 0.671 ± 0.038 | 0.701 ± 0.025 | 0.726 ± 0.026 |
| QGGTWKKLVKMI | 0.573 ± 0.05 | 0.6963 ± 0.006 | 0.643 ± 0.055 | 0.7165 ± 0.0019 | 0.0823 ± 0.02 | 0.101 ± 0.018 | 0.165 ± 0.019 | 0.226 ± 0.035 |
| QNVKRIVRHMLT | 0.62 ± 0.056 | 0.691 ± 0.041 | 0.658 ± 0.008 | 0.723 ± 0.04 | 0.207 ± 0.018 | 0.251 ± 0.022 | 0.41 ± 0.027 | 0.374 ± 0.018 |
| QVSHLFAAVQLA | 0.6103 ± 0.0049 | 0.687 ± 0.018 | 0.555 ± 0.0081 | 0.65 ± 0.0091 | 0.337 ± 0.021 | 0.364 ± 0.051 | 0.573 ± 0.011 | 0.4485 ± 0.00088 |
| QWRMLTCLMERL | 0.446 ± 0.034 | 0.553 ± 0.063 | 0.472 ± 0.015 | 0.4882 ± 0.0037 | 0.398 ± 0.056 | 0.379 ± 0.012 | 0.496 ± 0.03 | 0.379 ± 0.012 |
| RAPPPSSLLSPP | 0.6612 ± 0.0063 | 0.724 ± 0.016 | 0.6499 ± 0.0057 | 0.718 ± 0.027 | 0.687 ± 0.0087 | 0.671 ± 0.029 | 0.706 ± 0.037 | 0.402 ± 0.013 |
| RARRFGKWERSG | 0.644 ± 0.032 | 0.761 ± 0.025 | 0.639 ± 0.013 | 0.731 ± 0.024 | 0.33 ± 0.03 | 0.377 ± 0.03 | 0.544 ± 0.0099 | 0.4453 ± 0.0039 |
| RDPLAPLLLAIP | 0.65 ± 0.038 | 0.717 ± 0.015 | 0.587 ± 0.011 | 0.7006 ± 0.0047 | 0.596 ± 0.04 | 0.609 ± 0.013 | 0.6816 ± 0.0035 | 0.698 ± 0.01 |
| RDYIAAKLVVCG | 0.4103 ± 0.0032 | 0.425 ± 0.029 | 0.304 ± 0.03 | 0.488 ± 0.0021 | 0.267 ± 0.0034 | 0.318 ± 0.027 | 0.4612 ± 0.0016 | 0.35 ± 0.091 |
| REAFVVLAVFFH | 0.199 ± 0.0062 | 0.321 ± 0.054 | 0.226 ± 0.019 | 0.406 ± 0.02 | 0.193 ± 0.0039 | 0.199 ± 0.03 | 0.315 ± 0.05 | 0.328 ± 0.04 |
| RFCLPLRLPVTT | 0.533 ± 0.028 | 0.5626 ± 0.0042 | 0.461 ± 0.037 | 0.5865 ± 0.0022 | 0.439 ± 0.0083 | 0.458 ± 0.016 | 0.589 ± 0.045 | 0.4497 ± 0.0012 |
| RFFVLSFFFLVS | 0.215 ± 0.013 | 0.335 ± 0.069 | 0.224 ± 0.023 | 0.416 ± 0.014 | 0.209 ± 0.01 | 0.212 ± 0.029 | 0.384 ± 0.0071 | 0.282 ± 0.024 |
| RFGLPLLVVTWL | 0.445 ± 0.0073 | 0.46 ± 0.0074 | 0.394 ± 0.028 | 0.5314 ± 0.005 | 0.4591 ± 0.0032 | 0.402 ± 0.0044 | 0.512 ± 0.011 | 0.468 ± 0.043 |
| RFHTFVFCLLCL | 0.407 ± 0.062 | 0.438 ± 0.018 | 0.432 ± 0.02 | 0.516 ± 0.026 | 0.2796 ± 0.00049 | 0.277 ± 0.015 | 0.386 ± 0.015 | 0.328 ± 0.06 |
| RFLFYSFPIHTL | 0.442 ± 0.061 | 0.6164 ± 0.0028 | 0.572 ± 0.039 | 0.67 ± 0.043 | 0.0683 ± 0.0092 | 0.0745 ± 0.019 | 0.105 ± 0.033 | 0.128 ± 0.0043 |
| RFVLVFLVSLII | 0.376 ± 0.039 | 0.501 ± 0.0079 | 0.399 ± 0.029 | 0.541 ± 0.042 | 0.364 ± 0.016 | 0.397 ± 0.016 | 0.48 ± 0.019 | 0.435 ± 0.035 |
| RGLANLIVIVSS | 0.572 ± 0.04 | 0.602 ± 0.0069 | 0.397 ± 0.022 | 0.603 ± 0.015 | 0.186 ± 0.012 | 0.228 ± 0.027 | 0.392 ± 0.011 | 0.374 ± 0.013 |

| Sequence | protein stability index (Saccharomyces cerevisiae [1]; [3]) | protein stability index (Saccharomyces cerevisiae [1]; [4]) | protein stability index (Saccharomyces cerevisiae [1]; [5]) | protein stability index (Saccharomyces cerevisiae [1]; [6]) | protein stability index (Saccharomyces cerevisiae [1]; [7]) | protein stability index (Saccharomyces cerevisiae [1]; [8]) | protein stability index (Saccharomyces cerevisiae [1]; [9]) | protein stability index (Saccharomyces cerevisiae [2]) |
| --- | --- | --- | --- | --- | --- | --- | --- | --- |
| RGSLYLILVLIG | 0.194 ± 0.0058 | 0.349 ± 0.087 | 0.215 ± 0.024 | 0.4035 ± 0.00092 | 0.118 ± 0.033 | 0.163 ± 0.03 | 0.268 ± 0.021 | 0.269 ± 0.026 |
| RHTVFFCQLLLV | 0.291 ± 0.0074 | 0.368 ± 0.0077 | 0.307 ± 0.012 | 0.43923 ± 3.7e-05 | 0.175 ± 0.024 | 0.185 ± 0.026 | 0.277 ± 0.046 | 0.238 ± 0.003 |
| RKNSQKILKLSG | 0.6945 ± 0.0068 | 0.7724 ± 0.0073 | 0.64 ± 0.042 | 0.739 ± 0.024 | 0.256 ± 0.013 | 0.317 ± 0.019 | 0.576 ± 0.029 | 0.502 ± 0.15 |
| RKQLSCIMIWCK | 0.361 ± 0.013 | 0.405 ± 0.012 | 0.204 ± 0.027 | 0.431 ± 0.0082 | 0.188 ± 0.0052 | 0.204 ± 0.015 | 0.40377 ± 0.00039 | 0.298 ± 0.011 |
| RLFLLIECSSGF | 0.451 ± 0.005 | 0.491 ± 0.0068 | 0.31 ± 0.046 | 0.493 ± 0.024 | 0.271 ± 0.0039 | 0.293 ± 0.035 | 0.508 ± 0.019 | 0.395 ± 0.045 |
| RLGSLVPLAKQL | 0.643 ± 0.11 | 0.745 ± 0.03 | 0.6729 ± 0.0062 | 0.737 ± 0.023 | 0.319 ± 0.0077 | 0.289 ± 0.023 | 0.413 ± 0.04 | 0.444 ± 0.059 |
| RLILAIVVSGGL | 0.4098 ± 0.0018 | 0.425 ± 0.033 | 0.295 ± 0.034 | 0.495 ± 0.0071 | 0.252 ± 0.015 | 0.305 ± 0.022 | 0.457 ± 0.03 | 0.389 ± 0.0071 |
| RLVGVRWEVCNL | 0.91 ± 0.041 | 0.902 ± 0.024 | 0.78 ± 0.041 | 0.86371 ± 0.00039 | 0.771 ± 0.022 | 0.772 ± 0.014 | 0.863 ± 0.019 | 0.744 ± 0.015 |
| RNNLHKKIRRGY | 0.681 ± 0.046 | 0.752 ± 0.0082 | 0.661 ± 0.043 | 0.745 ± 0.033 | 0.184 ± 0.028 | 0.251 ± 0.037 | 0.458 ± 0.013 | 0.413 ± 0.042 |
| RRLRPQTVAFLS | 0.593 ± 0.012 | 0.717 ± 0.03 | 0.676 ± 0.021 | 0.704 ± 0.028 | 0.159 ± 0.0046 | 0.176 ± 0.025 | 0.278 ± 0.0083 | 0.231 ± 0.04 |
| RRVLVVPCIWHM | 0.653 ± 0.031 | 0.73 ± 0.011 | 0.604 ± 0.015 | 0.673 ± 0.048 | 0.174 ± 0.026 | 0.223 ± 0.022 | 0.416 ± 0.022 | 0.327 ± 0.0065 |
| RSGWWQWGRPGT | 0.698 ± 0.031 | 0.7525 ± 0.0031 | 0.661 ± 0.033 | 0.7712 ± 0.0041 | 0.692 ± 0.034 | 0.691 ± 0.03 | 0.734 ± 0.025 | 0.752 ± 0.049 |
| RSIAFLLGQFLS | 0.6679 ± 0.0052 | 0.745 ± 0.016 | 0.68 ± 0.027 | 0.74305 ± 0.00053 | 0.372 ± 0.019 | 0.395 ± 0.047 | 0.637 ± 0.016 | 0.467 ± 0.013 |
| RSKLGVLVILWF | 0.288 ± 0.02 | 0.391 ± 0.011 | 0.293 ± 0.031 | 0.466 ± 0.012 | 0.243 ± 0.016 | 0.273 ± 0.025 | 0.448 ± 0.0055 | 0.353 ± 0.037 |
| RSYAYIIVATVA | 0.153 ± 0.021 | 0.197 ± 0.0038 | 0.182 ± 0.026 | 0.284 ± 0.014 | 0.14 ± 0.0081 | 0.178 ± 0.025 | 0.214 ± 0.024 | 0.274 ± 0.023 |
| RTALSSPRPALL | 0.6896 ± 0.0052 | 0.7635 ± 0.0053 | 0.701 ± 0.017 | 0.75 ± 0.0094 | 0.7131 ± 0.0061 | 0.723 ± 0.011 | 0.733 ± 0.0077 | 0.7799 ± 0.006 |
| RTFPYSALSFVS | 0.618 ± 0.032 | 0.712 ± 0.013 | 0.652 ± 0.046 | 0.718 ± 0.015 | 0.216 ± 0.022 | 0.235 ± 0.045 | 0.445 ± 0.048 | 0.457 ± 0.013 |
| RVFRRFCCVISM | 0.312 ± 0.034 | 0.342 ± 0.018 | 0.342 ± 0.029 | 0.49 ± 0.045 | 0.437 ± 0.027 | 0.339 ± 0.022 | 0.439 ± 0.015 | 0.366 ± 0.025 |
| RVFVGLVDFLFW | 0.437 ± 0.033 | 0.553 ± 0.073 | 0.402 ± 0.025 | 0.6062 ± 0.0026 | 0.37 ± 0.019 | 0.394 ± 0.033 | 0.57 ± 0.035 | 0.471 ± 0.072 |
